Measurements as given in article PMC2670981, “Divergence of Catalytic Mechanism within a Glycosidase Family Provides Insight into Evolution of Carbohydrate Metabolism by Human Gut Flora” (Chemistry & Biology, 2008).

Experiments:
Conditions in all cases: Ca2+
[1] = substrate: O=[N+]([O-])c1ccc(O[C@H]2O[C@H](CO)[C@H](O)[C@H](O)[C@H]2O)cc1; assay: Michaelis-Menten kinetics (KM) and 1H NMR of hydrolysis; type: biochemical, Bacteroides thetaiotaomicron
purified protein = substrate: OC[C@H]1O[C@H](OC[C@H]2OC(O)[C@H](O)[C@@H](O)[C@@H]2O)[C@H](O)[C@@H](O)[C@H]1O; assay: purified protein
[2] = substrate: OC[C@H]1O[C@H](O[C@H]2[C@H](O)[C@@H](O)C(O)O[C@@H]2CO)[C@H](O)[C@@H](O)[C@@H]1O; assay: stopped glucose oxidase/peroxidase assay, Michaelis-Menten (KM) with substrate inhibition; type: biochemical, Bacteroides thetaiotaomicron
[3] = substrate: O=[N+]([O-])c1ccc(O[C@H]2O[C@H](CO)[C@@H](O)[C@H](O)[C@H]2O)cc1; assay: Michaelis-Menten kinetics (KM) and 1H NMR of hydrolysis; type: biochemical, Bacteroides thetaiotaomicron

B1: BtGH97b (Bacteroides thetaiotaomicron VPI-5482) (protein)
chain: QKQFTLASPDGNLKTTITIGDRLTYDITCNGRQILTPSPISMTLDNGTVWGENAKLSGTSRKSVDEMIPSPFYRASELRNHYNGLTLRFKKDWNVEFRAYNDGIAYRFVNQGKKPFRVVTEVSDYCFPSDMTASVPYVKSGKDGDYNSQFFNSFENTYTTDKLSKLNKQRLMFLPLVVDAGDGVKVCITESDLENYPGLYLSASEGANRLSSMHAPYPKRTVQGGHNQLQMLVKEHEDYIAKVDKPRNFPWRIAVVTTTDKDLAATNLSYLLGAPSRMSDLSWIKPGKVAWDWWNDWNLDGVDFVTGVNNPTYKAYIDFASANGIEYVILDEGWAVNLQADLMQVVKEIDLKELVDYAASKNVGIILWAGYHAFERDMENVCRHYAEMGVKGFKVDFMDRDDQEMTAFNYRAAEMCAKYKLILDLHGTHKPAGLNRTYPNVLNFEGVNGLEQMKWSSPSVDQVKYDVMIPFIRQVSGPMDYTQGAMRNASKGNYYPCYSEPMSQGTRCRQLALYVVFESPFNMLCDTPSNYMREPESTAFIAEIPTVWDESIVLDGKMGEYIVTARRKGDVWYVGGITDWSARDIEVDCSFLGDKSYHATLFKDGVNAHRAGRDYKCESFPIKKDGKLKVHLAPGGGFALKIK
With B1 the Km [1] was 230 ± 10 µM, the kcat [1] was 91 ± 2 s⁻¹ and the kcat/Km [1] was 391000 M⁻¹ s⁻¹. The Km (purified protein) was 1500 ± 170 µM, the kcat (purified protein) was 0.015 s⁻¹ and the kcat/Km (purified protein) was 11 M⁻¹ s⁻¹.

B2: BtGH97a (Bacteroides thetaiotaomicron VPI-5482) (protein)
chain: QQKLTSPDNNLVMTFQVDSKGAPTYELTYKNKVVIKPSTLGLELKKEDNTRTDFDWVDRRDLTKLDSKTNLYDGFEVKDTQTATFDETWQPVWGEEKEIRNHYNELAVTLYQPMNDRSIVIRFRLFNDGLGFRYEFPQQKSLNYFVIKEEHSQFGMNGDHIAFWIPGDYDTQEYDYTISRLSEIRGLMKEAITPNSSQTPFSQTGVQTALMMKTDDGLYINLHEAALVDYSCMHLNLDDKNMVFESWLTPDAKGDKGYMQTPCNTPWRTIIVSDDARNILASRITLNLNEPCKIADAASWVKPVKYIGVWWDMITGKGSWAYTDELTSVKLGETDYSKTKPNGKHSANTANVKRYIDFAAAHGFDAVLVEGWNEGWEDWFGNSKDYVFDFVTPYPDFDVKEIHRYAARKGIKMMMHHETSASVRNYERHMDKAYQFMADNGYNSVKSGYVGNIIPRGEHHYGQWMNNHYLYAVKKAADYKIMVNAHEATRPTGICRTYPNLIGNESARGTEYESFGGNKVYHTTILPFTRLVGGPMDYTPGIFETHCNKMNPANNSQVRSTIARQLALYVTMYSPLQMAADIPENYERFMDAFQFIKDVALDWDETNYLEAEPGEYITIARKAKDTDDWYVGCTAGENGHTSKLVFDFLTPGKQYIATVYADAKDADWKENPQAYTIKKGILTNKSKLNLHAANGGGYAISIKEVKDKSEAKGLKRL
For B2, the Km [2] was 2000 ± 400 µM, the kcat [2] was 0.015 ± 0.002 s⁻¹ and the kcat/Km [2] was 7.2 M⁻¹ s⁻¹. The Km [3] was 85 ± 9 µM, the kcat [3] was 53 ± 2 s⁻¹ and the kcat/Km [3] was 620000 M⁻¹ s⁻¹.
